Results: the supplement of paper PMC11908140

B1: library; numbered along this chain (parent)
chain: MRKPRAAVGSGHRKQAASQEGRQKHAKNNSQAKPSACDGLARQPEEVVLQASVSSYHLFRDVAEVTAFRGSLLSWYDQEKRDLPWRRRAEDEMDLDRRAYAVWVSEVMLQQTQVATVINYYTGWMQKWPTLQDLASASLEEVNQLWAGLGYYSRGRRLQEGARKVVEELGGHMPRTAETLQQLLPGVGRYTAGAIASIAFGQATGVVDGNVARVLCRVRAIGADPSSTLVSQQLWGLAQQLVDPARPGDFNQAAMELGATVCTPQRPLCSQCPVESLCRARQRVEQEQLLASGSLSGSPDVEECAPNTGQCHLCLPPSEPWDQTLGVVNFPRKASRKPPREESSATCVLEQPGALGAQILLVQRPNSGLLAGLWEFPSVTWEPSEQLQRKALLQELQRWAGPLPATHLRHLGEVVHTFSHIKLTYQVYGLALEGQTPVTTVPPGARWLTQEEFHTAAVSTAMKKVFRVYQGQQPGTCMGSKRSQVSSPCSRKKPRMGQQVLDNFFRSHISTDAHSLNSAAQ

Variants of: B1
Assay: 8OG:A repair function score (normalized; synonymous = 0, nonsense = -1) (normalized log-likelihood score); higher = more repair activity (WT-like)
Settings: with 8OG:A DNA repair reporter (GFP) in HEK-293 MUTYH KO cells
Outline: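 MUTYH knockout HEK-293 cells carrying lentiviral MUTYH cDNA NNN codon-scan libraries were grown with 10 pg/ml doxycycline and co-transfected with mCherry and a GFP reporter of 8OG:A repair. Viable mCherry+ cells were sorted at 72 h into GFP+ (repair) and GFP− bins, with three replicates per tile, and tile amplicons were sequenced. Rosace fitness scores for each tile were turned into a normalized repair function score anchored on the synonymous and nonsense distributions. Synonymous medians were set to 0 and nonsense medians to -1, and variants below 300 counts per million at the start were dropped.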

Variant | 8OG:A repair function score
MRKPRAAVGSGHRKQAASQEGRQKHAKNNSQAKPSACDGLARQPEEVVLQASVSSYHLFRDVAEVTAFRGSLLSWYDQEKRDLPWRRRAEDEMDLDRRAYAVWVSEVMLQQTQVATVINYYTGWMQKWPTLQDLASASLEEVNQLWAGLGYYSRGRRLQEGARKVVEELGGHMPRTAETLQQLLPGVGRYTAGAIASIAFGQATGVVDGNVARVLCRVRAIGADPSSTLVSQQLWGLAQQLVDPARPGDFNQAAMELGATVDTPQRPLCSQCPVESLCRARQRVEQEQLLASGSLSGSPDVEECAPNTGQCHLCLPPSEPWDQTLGVVNFPRKASRKPPREESSATCVLEQPGALGAQILLVQRPNSGLLAGLWEFPSVTWEPSEQLQRKALLQELQRWAGPLPATHLRHLGEVVHTFSHIKLTYQVYGLALEGQTPVTTVPPGARWLTQEEFHTAAVSTAMKKVFRVYQGQQPGTCMGSKRSQVSSPCSRKKPRMGQQVLDNFFRSHISTDAHSLNSAAQ [C262D] | -1.2
MRKPRAAVGSGHRKQAASQEGRQKHAKNNSQAKPSACDGLARQPEEVVLQASVSSYHLFRDVAEVTAFRGSLLSWYDQEKRDLPWRRRAEDEMDLDRRAYAVWVSEVMLQQTQVATVINYYTGWMQKWPTLQDLASASLEEVNQLWAGLGYYSRGRRLQEGARKVCEELGGHMPRTAETLQQLLPGVGRYTAGAIASIAFGQATGVVDGNVARVLCRVRAIGADPSSTLVSQQLWGLAQQLVDPARPGDFNQAAMELGATVCTPQRPLCSQCPVESLCRARQRVEQEQLLASGSLSGSPDVEECAPNTGQCHLCLPPSEPWDQTLGVVNFPRKASRKPPREESSATCVLEQPGALGAQILLVQRPNSGLLAGLWEFPSVTWEPSEQLQRKALLQELQRWAGPLPATHLRHLGEVVHTFSHIKLTYQVYGLALEGQTPVTTVPPGARWLTQEEFHTAAVSTAMKKVFRVYQGQQPGTCMGSKRSQVSSPCSRKKPRMGQQVLDNFFRSHISTDAHSLNSAAQ [V166C] | 0.0203
MRKPRAAVGSGHRKQAASQEGRQKHAKNNSQAKSSACDGLARQPEEVVLQASVSSYHLFRDVAEVTAFRGSLLSWYDQEKRDLPWRRRAEDEMDLDRRAYAVWVSEVMLQQTQVATVINYYTGWMQKWPTLQDLASASLEEVNQLWAGLGYYSRGRRLQEGARKVVEELGGHMPRTAETLQQLLPGVGRYTAGAIASIAFGQATGVVDGNVARVLCRVRAIGADPSSTLVSQQLWGLAQQLVDPARPGDFNQAAMELGATVCTPQRPLCSQCPVESLCRARQRVEQEQLLASGSLSGSPDVEECAPNTGQCHLCLPPSEPWDQTLGVVNFPRKASRKPPREESSATCVLEQPGALGAQILLVQRPNSGLLAGLWEFPSVTWEPSEQLQRKALLQELQRWAGPLPATHLRHLGEVVHTFSHIKLTYQVYGLALEGQTPVTTVPPGARWLTQEEFHTAAVSTAMKKVFRVYQGQQPGTCMGSKRSQVSSPCSRKKPRMGQQVLDNFFRSHISTDAHSLNSAAQ [P34S] | 0.0874
MRKPRAAVGSGHRKQAASQEGRQKHAKNNSQAKPSACDGLARQPEEVVLQASVSSYHLFRDVAEVTAFRGSLLSWYDQEKRDLPWRRRAEDEMDLDRRAYAVWVSEVMLQQTQVATVINYYTGWMQKWPTLQDLASASLEEVNQLWAGLGYYSRGRRLQEGARKVVEELGGHMPRTAETLQQLLPGVGRYTAGAIASIAFGQATGVVDGNVARVLCRVRAIGADPWSTLVSQQLWGLAQQLVDPARPGDFNQAAMELGATVCTPQRPLCSQCPVESLCRARQRVEQEQLLASGSLSGSPDVEECAPNTGQCHLCLPPSEPWDQTLGVVNFPRKASRKPPREESSATCVLEQPGALGAQILLVQRPNSGLLAGLWEFPSVTWEPSEQLQRKALLQELQRWAGPLPATHLRHLGEVVHTFSHIKLTYQVYGLALEGQTPVTTVPPGARWLTQEEFHTAAVSTAMKKVFRVYQGQQPGTCMGSKRSQVSSPCSRKKPRMGQQVLDNFFRSHISTDAHSLNSAAQ [S226W] | -0.231
MRKPRAAVGSGHRKQAASQEGRQKHAKNNSQAKPSACDGLARQPEEVVLQASVSSYHLFRDVAEVTAFRGSLLSWYDQEKRDLPWRRRAEDEMDLDRRAYAVWVSEVMLQQTQVATVINYYTGWMQKWPTLQDLASASLEEVNQLWAGLGYYSRGRRLQEGARKVVEELGGHMPRTAETLQQLLPGVGRYTAGAIASIAFGQATGVVDGNVARVLCRVRAIGADPSSTLVSQQLWGLAQQLVDPARPGDFNQAAMELGATVCTPQRPLCSQCPVESLCRARQRVEQEQLLASGSLSGSPDVEECAPNTGQCHLCLPPSEPWDQTLGVVNFPRKASRKPPREESSATCVLEQPGALGAQILLVQRPNSGLLAGLWEFPSVTWEPSEQLQRKALLQELQRWAGPLPATHLRHLGEVVHTFSHAKLTYQVYGLALEGQTPVTTVPPGARWLTQEEFHTAAVSTAMKKVFRVYQGQQPGTCMGSKRSQVSSPCSRKKPRMGQQVLDNFFRSHISTDAHSLNSAAQ [I421A] | -0.443
MRKPRAAVGSGHRKQAASQEGRQKHAKNNSQAKPSACDGLARQPEEVVLQASVSSYHLFRDVAEVTAFRGSLLSWYDQEKRDLPWRRRAEDEMDLDRRAYAVWVSEVMLQQTQVATVINYYTGWMQKWPTLQDLASASLEEVNQLWAGLGYYSRGRRLQEGARKVVEELGGHMPRTAETLQQLLPGVGRYTAGAIASIAFGQATGVVDGNVARVLCRVRAIGADPSSTLVSQQLWGLAQQLVDPARPGDFNQAAMELGATVCTPQRPLCSQCPVESLCRARQRVEQEQLLASGSLSGSPDVEECAPNTGQCHLCLPPSEPWDQTLGVVNFPRKASRKPPREESSATCVLEQPGALGAQILLVQRPNSGLLAGLWEFPSVTWEPSEQLQRKALLQELQRWAGPLPATHLRHLGEVVHTFSHIKLTYQVYGLALEGQTPVTTVPPGARWLTQEEFHTAAVSTAMKKVFRVWQGQQPGTCMGSKRSQVSSPCSRKKPRMGQQVLDNFFRSHISTDAHSLNSAAQ [Y469W] | 0.00845
MRKPRAAVGSGHRKQAASQEGRQKHAKNNSQAKPSACDGLARQPEEVVLQASVSSYHLFRDVAEVTAFRGSLLSWYDQEKRDLPWRRRAEDEMDLDRRAYAVWVSEVMLQQTQVATVINYYTGWMQKWPTLQDLASASLEEVNQLWAGLGYYSRGRRLQEGARKVVEELGGHMPRTAETLQQLLPGVGRYTAGAIASIAFGQATGVVDGNVARVLCRVRAIGADPSSTLVSQQLWGLAQQLVDPARPGDFNQAAMELGATVCTPQRPLCSQCPVESLCRARQRVEQEQLLASGSLSGSPDVEECAPNTGQCHLCLPPSEPWDQTLGVVNFPRKASRKPPREESSATCVLEQPGALGAQILLVQRPNSGLLAGLWEFPSVTWEPSEQLQRKALLQELQRWAGPLPATHLRHLGEVVHTFSHIKLTYQVYGLALEGQTPVTTVPPGARWLTQETFHTAAVSTAMKKVFRVYQGQQPGTCMGSKRSQVSSPCSRKKPRMGQQVLDNFFRSHISTDAHSLNSAAQ [E452T] | 0.0217
MRKPRAAVGSGHRKQAASQEGRQKHAKNNSQAKPSACDGLARQPEEVVLQASVSSYHLFRDVAEVTAFRGSLLSWYDQEKRDLPWRRRAEDEMDLDRRAYAVWVSEVMLQQTQVATVINYYTGWMQKWPTLQDLASASLEEVNQLWAGLGYYSRGRRLQEGARKVVEELGGHMPRTAETLQQLLPGVGRYTAGAIASIAFGQATGVVDGNVARVLCRVRAIGADPSSTLVSQQLWGLAQQLVDPARPGIFNQAAMELGATVCTPQRPLCSQCPVESLCRARQRVEQEQLLASGSLSGSPDVEECAPNTGQCHLCLPPSEPWDQTLGVVNFPRKASRKPPREESSATCVLEQPGALGAQILLVQRPNSGLLAGLWEFPSVTWEPSEQLQRKALLQELQRWAGPLPATHLRHLGEVVHTFSHIKLTYQVYGLALEGQTPVTTVPPGARWLTQEEFHTAAVSTAMKKVFRVYQGQQPGTCMGSKRSQVSSPCSRKKPRMGQQVLDNFFRSHISTDAHSLNSAAQ [D249I] | -0.596
MRKPRAAVGSGHRKQAASQEGRQKHAKNNSQAKPSACDGLARQPEEVVLQASVSSYHLFRDVAEVTAFRGSLLSWYDQEKRDLPWRRRAEDEMDLDRRAYAVWVSEVMLQQTQVATVINYYTGWMQKWPTLQDLASASLEEVNQLWAGLGYYSRGRRLQEGARKVVEELGGHMPRTAETLQQLLPGVGRYTAGAIASIAFGQATGVVDGNVARVLCRVRAIGADPSSTLVSQQLWGLAQQLVDPARPGDFNQAAMELGATVCTPQRPLCSQCPVESLCRARQRVEQEQLLASGSLSGSPDVEECAPNTGQCHLCLPPSEPWDQTLGVVNFPRKASRKPPREESSATCVLEQPGALGAQILLVQRPNSGLLAGLWEFPSVTWEPSEQLQRKALLQELQRVAGPLPATHLRHLGEVVHTFSHIKLTYQVYGLALEGQTPVTTVPPGARWLTQEEFHTAAVSTAMKKVFRVYQGQQPGTCMGSKRSQVSSPCSRKKPRMGQQVLDNFFRSHISTDAHSLNSAAQ [W399V] | -0.167
MRKPRAAVGSGHRKQAASQEGRQKHAKNNSQAKPSACDGLARQPEEVVLQASVSSYHLFRDVAEVTAFRGSLLSWYDQEKRDLPWRRRAEDEMDLDRRAYAVWVSEVMLQQTQVACVINYYTGWMQKWPTLQDLASASLEEVNQLWAGLGYYSRGRRLQEGARKVVEELGGHMPRTAETLQQLLPGVGRYTAGAIASIAFGQATGVVDGNVARVLCRVRAIGADPSSTLVSQQLWGLAQQLVDPARPGDFNQAAMELGATVCTPQRPLCSQCPVESLCRARQRVEQEQLLASGSLSGSPDVEECAPNTGQCHLCLPPSEPWDQTLGVVNFPRKASRKPPREESSATCVLEQPGALGAQILLVQRPNSGLLAGLWEFPSVTWEPSEQLQRKALLQELQRWAGPLPATHLRHLGEVVHTFSHIKLTYQVYGLALEGQTPVTTVPPGARWLTQEEFHTAAVSTAMKKVFRVYQGQQPGTCMGSKRSQVSSPCSRKKPRMGQQVLDNFFRSHISTDAHSLNSAAQ [T116C] | -0.0685
MRKPRAAVGSGHRKQAASQEGRQKHAKNNSQAKPSACDGLARQPEEVVLQASVSSYHLFRDVAEVTAFRGSLLSWYDQEKRDLPWRRRAEDEMDLDRRAYAVWVSEVMLQQTQVATVINYYTGWMQKWPTLQDLASASLEEVNQLWAGLGYYSRGRRLQEGARKVVEELGGHMPRTAETLQQLLPGVGRYTAGAIASIAFGQATGVVDGNVARVLCRVRAIGADPSSTLVSQQLWGLAQQLVDPARPGDFNQAAMELGATVCTPQRPLCSQCPVESLCRARQRVEQEQLLASGSLSGSPDVEECAPNTGQCHLCLPPSEPWDQTLGVVNFPRKASRKPPREESSATCVLEQPGALGAQILLVQRPNSGLLAGLWEFPSVTWEPSEQLQRKALLQELQRWAGPLPATHLRHLGEVVHTFSHIKLTYQVYGLALEGQTPVTTVPPGARWLTQEEFHTAAVSTAMKKVFRVYQGQQPGTCMGTKRSQVSSPCSRKKPRMGQQVLDNFFRSHISTDAHSLNSAAQ [S480T] | 0.0286
MRKPRAAVGSGHRKQAASQEGRQKHAKNNSQAKPSACDGLARQPEEVVLQASVSSYHLFRDVAEVTAFRGSLLSWYDQEKRDLPWRRRAEDEMDLDRRAYAVWVSEVMLQQTQVATVINYYTGWMQKWPTLQDLASASLEEVNQLWAGLGYYSRGRRLQEGARKVVEELGGHMPRTAETLQQLLPGVGRYTAGAIASIAFGQATGVVDGNVARVLCRVRAIGADPSSTLVSQQLWGLAQQLVDPARPGDFNQAAMELGATVCTPQRPLCSQCPVESLCRARQRVEQEQLLASGSLSGSPDVEECAPNTGQCHLCLPPSEVWDQTLGVVNFPRKASRKPPREESSATCVLEQPGALGAQILLVQRPNSGLLAGLWEFPSVTWEPSEQLQRKALLQELQRWAGPLPATHLRHLGEVVHTFSHIKLTYQVYGLALEGQTPVTTVPPGARWLTQEEFHTAAVSTAMKKVFRVYQGQQPGTCMGSKRSQVSSPCSRKKPRMGQQVLDNFFRSHISTDAHSLNSAAQ [P320V] | -0.0867
